Results taken from paper PMC11149935, “SAFB regulates hippocampal stem cell fate by targeting Drosha to destabilize Nfib mRNA” (eLife, 2024).

Target: T1, Drosha (endogenous, N2A cells) (mouse (endogenous in N2A), UniProt Q5HZJ0 1-1373)
T1 construct: Drosha, endogenous protein of N2A neuroblastoma cells (ATCC CCL-131); source: endogenous, N2A lysate
T1 sequence (looked up): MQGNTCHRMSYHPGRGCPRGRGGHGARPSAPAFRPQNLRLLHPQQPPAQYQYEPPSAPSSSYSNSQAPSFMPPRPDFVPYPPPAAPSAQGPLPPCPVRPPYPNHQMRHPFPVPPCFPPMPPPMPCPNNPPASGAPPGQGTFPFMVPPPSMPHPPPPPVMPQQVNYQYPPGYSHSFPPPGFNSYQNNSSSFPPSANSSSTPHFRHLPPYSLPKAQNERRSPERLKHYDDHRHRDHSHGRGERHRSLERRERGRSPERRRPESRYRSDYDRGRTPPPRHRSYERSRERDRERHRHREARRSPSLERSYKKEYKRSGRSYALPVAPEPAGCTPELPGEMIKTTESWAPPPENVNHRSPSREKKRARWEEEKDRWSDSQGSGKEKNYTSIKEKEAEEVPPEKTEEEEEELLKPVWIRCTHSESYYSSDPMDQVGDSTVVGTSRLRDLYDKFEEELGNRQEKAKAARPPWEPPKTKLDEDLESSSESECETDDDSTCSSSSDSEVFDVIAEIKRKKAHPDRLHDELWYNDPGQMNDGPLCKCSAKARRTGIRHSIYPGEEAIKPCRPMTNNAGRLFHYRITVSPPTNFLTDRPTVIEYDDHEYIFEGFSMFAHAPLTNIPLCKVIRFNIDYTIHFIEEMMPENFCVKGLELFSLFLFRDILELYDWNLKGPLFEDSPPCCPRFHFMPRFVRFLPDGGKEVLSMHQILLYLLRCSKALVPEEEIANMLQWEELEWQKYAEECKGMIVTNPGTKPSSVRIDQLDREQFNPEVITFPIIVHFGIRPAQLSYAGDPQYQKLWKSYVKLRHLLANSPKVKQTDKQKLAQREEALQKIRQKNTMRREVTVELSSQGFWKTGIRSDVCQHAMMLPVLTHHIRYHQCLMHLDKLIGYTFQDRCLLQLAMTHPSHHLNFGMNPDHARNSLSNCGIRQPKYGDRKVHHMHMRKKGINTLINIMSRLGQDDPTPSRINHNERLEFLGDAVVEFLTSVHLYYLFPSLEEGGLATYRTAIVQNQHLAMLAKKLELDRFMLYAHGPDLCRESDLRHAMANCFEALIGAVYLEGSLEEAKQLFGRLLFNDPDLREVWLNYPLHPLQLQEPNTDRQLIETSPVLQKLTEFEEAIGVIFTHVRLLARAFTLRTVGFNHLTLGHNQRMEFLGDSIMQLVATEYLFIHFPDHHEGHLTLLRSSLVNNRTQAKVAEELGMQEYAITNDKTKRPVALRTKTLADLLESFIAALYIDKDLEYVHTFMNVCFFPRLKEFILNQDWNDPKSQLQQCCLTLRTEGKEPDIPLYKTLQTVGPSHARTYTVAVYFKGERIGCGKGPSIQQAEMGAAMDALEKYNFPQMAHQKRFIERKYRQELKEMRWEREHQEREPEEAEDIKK
Test: co-IP; N2A cells transfected with SAFB-HA or SAFB-ΔRE-HA, 48 hr; IP of endogenous Drosha, anti-HA immunoblot, densitometry relative to Drosha; IgG isotype control IP
Settings: partners not purified

B1: SAFB-ΔRE-HA (natural protein, UniProt Q15424 1-915, looked up)
chain: MAETLSGLGDSGAAGAAALSSASSETGTRRLSDLRVIDLRAELRKRNVDSSGNKSVLMERLKKAIEDEGGNPDEIEITSEGNKKTSKRSSKGRKPEEEGVEDNGLEENSGDGQEDVETSLENLQDIDIMDISVLDEAEIDNGSVADCVEDDDADNLQESLSDSRELVEGEMKELPEQLQEHAIEDKETINNLDTSSSDFTILQEIEEPSLEPENEKILDILGETCKSEPVKEESSELEQPFAQDTSSVGPDRKLAEEEDLFDSAHPEEGDLDLASESTAHAQSSKADSLLAVVKREPAEQPGDGERTDCEPVGLEPAVEQSSAASELAEASSEELAEAPTEAPSPEARDSKEDGRKFDFDACNEVPPAPKESSTSEGADQKMSSPEDDSDTKRLSKEEKGRSSCGRNFWVSGLSSTTRATDLKNLFSKYGKVVGAKVVTNARSPGARCYGFVTMSTAEEATKCINHLHKTELHGKMISVEKAKNEPVGKKTSDKRDSDGKKEKSSNSDRSTNLKRDDKCDRKDDAKKGDDGSGEKSKDQDDQKPGPSERSRAVRRPYDLDRRDDAYWPEAKRAALDERYHSDFNRQDRFHDFDHRDRGRYPDHSVDRREGSRSMMGEREGQHYPERHGGPERHGRDSRDGWGGYGSDKRMSEGRGLPPPPRRDWGDHGRREDDRSWQGTADGGMMDRDHKRWQGGERSMSGHSGPGHMMNRGGMSGRGSFAPGGASRGHPIPHGGMQGGFGGQSRGSRPSDARFTRRY
notes: SAFB lacking the RE-rich region (amino acids 552-708), made from CAG::Safb-HA-IRES-Cfp by Q5 site-directed mutagenesis; Parent is m26; Also expressed in DG NSCs for the reporter assay; also called CAG::Safb-ΔRE-HA-IRES-Cfp; source: N2A, transfected (TransFectin), in lysate
- fold reduction in binding against SAFB WT: 5.7 fold
